Test results from patent US20140287419A1, “Compositions Having Dicamba Decarboxylase Activity and Methods of Use” (priority 2013, published 2014).

Assay: 14C assay with IPTG-induced recombinant E. coli cells (14CO2 capture from [14C]-carboxyl-labeled dicamba)
Conditions: E. coli cell assay, 108 sequences tested

B1: SEQ ID NO:44: amidohydrolase, Mycobacterium avium 104 (protein, listed as Mycobacterium avium)
chain: MARIITVEEHFQHPEVSARVAELTGPAVEGLAEFGNAFSLDPDSTARLGGNRLAHMDQVGIDVQVVSHGNGSPGTLQHPEAVELCRRVNNDLAAQIAENPDRFRGFATLPLYDPAAAAEELRRCVGDLGFVGALIAGSYDGLFLDDERFDPILTAAEAVDFPIYVHPGLPEAPVSQRYYAGSWPASVHMMFSGPAFGWHAEAGIHIVRLILSGALDRHPTLKLLSGHWGELAAFYLERLDETLGLLPTGLERAPSDYYRQQVWITPSGMYNQNQLNFMTAELGAQRIIYSEDFPYVVRDNVSTFLEQAGLSEADTHAIAHTNAEALLRI
With B1 the “decarboxylation activity of dicamba” value was “showed decarboxylation activity of dicamba”.

B2: SEQ ID NO:43: amidohydrolase, Rhizobium leguminosarum bv. trifolii WSM2304 (protein, listed as Rhizobium leguminosarum)
chain: MAQGKIALEEHFAIPETLQDSAGFVPGDYWTELSARLLDIQDKRLRLMDTHGIEKMILSLNAPAVQAIPDKAKAVEISRRANDFLAEQCVKNPNRFLGFAALPLQDPDAATQELQRCVTTMGFVGALVNGFSQEGDGTTPLYYDLPQYRPFWAEVEKLDVPFYLHPRNPLPQDSRIYAGHSWLMGPTWAFAQETAVHALRLMGSGLFDEHPALRIIVGHMGEGLPYMMWRIDNRNAWVKVEKSYPAKRPIADYFNENFYITTSGNFRTQSLIDAMLEIGADRILFSADWPFENVDHAANWFDSATISEADRLKIGRTNAVSLFKLDR
In the case of B2, the “decarboxylation activity of dicamba” value is reported as “showed decarboxylation activity of dicamba”.

B3: SEQ ID NO:46: decarboxylase, Rhodococcus opacus B4 (protein, listed as Rhodococcus opacus)
chain: MARIITLEEHYLDPAIAAASAPLARELSPDFAAAYDPASGLSYTPSAQVLQDLGQRRIADMDTHGISMQVLSCLTTQQVPADVAPDLVRAANDTAAAAVRAHPDRFAAFAALPTTAPDAAATELARCIDDLGFVGTMINGRTDGEFLDAPRFDPILATAAARNVPIYLHPAVPPRATSDSNYAGLAPLVTARLQTSAWGWHQETAVHFLHLVLSGVLDRYPNLQFILGHWGEMIPFYLDRLDEALPQAVTNLDRTISDYVRENVYITPSGMFNQAQLQYCVETLGVDRILYSVDYPFIGNDGAVSFLDEANLPDEAKHQIAHQNTEKLLGL
For B3, the “decarboxylation activity of dicamba” value was “showed decarboxylation activity of dicamba”.

B4: SEQ ID NO:36: hypothetical protein AGRO_1970, Agrobacterium sp. ATCC 31749 (protein, listed as Agrobacterium sp.)
chain: MAQGKVALEEHFAIPETLQDSAGFVPGDYWTELQHRLLDIQDTRLKLMDAHGIETMILSLNAPAVQAIPDKTKAIEIARRANDALAEECAKRPNRFLAFAALPLQDPDAATQELQRCVNDLGFVGALVNGFSQEGDGQIPLYYDLPQYRPFWGEVEKLDVPFYLHPRNPLPQDSRIYDGHPWLLGPTWAFAQETAVHALRLMASGLFDEHPRLNIILGHMGEGLPYMMWRIDHRNAWVKLPPRYPAKRRFVDYFNENFHITTSGNFRTQTLIDAILEIGADRILFSTDWPFENIDHASDWFHATSIAEADRVKIGRTNARRLFKLDGR
In the case of B4, the “decarboxylation activity of dicamba” value is reported as “showed decarboxylation activity of dicamba”.

B5: SEQ ID NO:35: amidohydrolase, Burkholderia sp. CCGE1001 (protein)
chain: MAFKASRKIALEEHFAIDATVQDSAGFVPPSYWAELKRRLLDIHDRRIDEMDRNGVELMVLSLNAPTVQAVPNIKDAYDLSRRANDFLAEQIVKRPERFKGFAALPMQSPDLAARELERCVKELNFVGALVNGFSQVEESGTALYYDLPQYRQFWSVVQALDVPFYLHPRNPLPAHAPIYEGHPWLLGPTWAFGQETAVHALRLMGSGLFDEYPELKIILGHMGEGLPYSMWRIDNRNAWVETQPNYPAKKRIAEYFHKNFWLTTSGNFRTQTLIDAMLEIGSDRILFSTDWPFENVDHAAQWFDDAAISENDRIKIARTNAARLFKLEP
modifications: Burkholderia sp
With B5 the “decarboxylation activity of dicamba” value was “showed decarboxylation activity of dicamba”.
